Measurements as given in patent US20230293738A1 (Y MABS THERAPEUTICS, published 2023).

Key:
[1] = biological target: recombinant human B7-H3 (Example 3) (human) (UniProt Q5ZPR3); test: SPR, triplicate
[2] = biological target: T1, recombinant mouse B7-H3 (mouse, UniProt Q8VE98 29-244, limits assumed); test: SPR, triplicate
T1 sequence (looked up): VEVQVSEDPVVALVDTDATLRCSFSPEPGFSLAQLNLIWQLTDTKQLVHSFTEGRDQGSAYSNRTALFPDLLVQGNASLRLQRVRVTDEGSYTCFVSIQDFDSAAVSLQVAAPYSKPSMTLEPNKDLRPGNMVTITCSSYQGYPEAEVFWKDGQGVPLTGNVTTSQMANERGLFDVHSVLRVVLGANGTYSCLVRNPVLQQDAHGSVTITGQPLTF

[3] = biological target: T2, recombinant rat B7-H3 (rat, UniProt Q7TPB4 29-244, limits assumed); test: SPR, triplicate
T2 sequence (looked up): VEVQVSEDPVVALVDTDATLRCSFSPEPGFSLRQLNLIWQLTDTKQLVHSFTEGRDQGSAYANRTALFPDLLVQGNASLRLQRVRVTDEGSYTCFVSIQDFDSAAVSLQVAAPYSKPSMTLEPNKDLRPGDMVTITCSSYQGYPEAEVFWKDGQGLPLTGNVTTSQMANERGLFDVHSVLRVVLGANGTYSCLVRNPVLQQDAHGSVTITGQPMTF

[4] = biological target: T3, human 2Ig-B7H3 (B7H3-2Ig-His) (human, UniProt Q5ZPR3 29-466); test: SPR, Biacore T200, 2Ig-B7H3-His on CM5 chip, 1:1 fit; * beyond fitting limits
T3 construct: Recombinant His-tagged protein immobilised on a CM5 chip; also called 21g-B7H3; B7H3-21g-His; not shown: His tag
T3 sequence: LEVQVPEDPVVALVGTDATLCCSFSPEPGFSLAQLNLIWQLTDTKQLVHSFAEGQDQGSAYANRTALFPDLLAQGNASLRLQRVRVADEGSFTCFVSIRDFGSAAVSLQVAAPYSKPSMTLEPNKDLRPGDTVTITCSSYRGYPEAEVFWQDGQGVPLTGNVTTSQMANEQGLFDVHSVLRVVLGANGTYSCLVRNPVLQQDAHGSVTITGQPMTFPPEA
Protocol: Both human B7H3 41g and 21g proteins were dissolved in PBS (Phosphate-Buffered Saline) to make 0.1 mg/ml stock solution and stored in −80° C. B7-H3 proteins were immobilized onto the CM5 sensor chip using Amine Coupling Kit. Both proteins were diluted to 10 ug/ml with 10 mM Sodium acetate, pH 5.0. […] A blank immobilized surface was used as a control
Binding Assays: [0143] 1. Antibodies were diluted in HBS-EP buffer (10 mM HEPES, 150 mM NaCl, 3 mM EDTA, 0.05% Surfactant P20, pH 7.4) at varying concentrations (25-50-100-200-400 nM) prior to analysis. […] 2. Samples (60 ul) were injected over the sensor surface at a flow rate of 30 ul/min over 2 min. [0145] 3. Following completion of the association phase, dissociation was monitored in HBS-EP buffer for 10 min at the same flow rate. […] 4. At the end of each cycle, the surface was regenerated using 10 mM NaOH at a flow rate of 50 ul/min over 2×15 sec.

[5] = biological target: T3, human 2Ig-B7H3 (B7H3-2Ig-His); test: SPR, Biacore T200, 2Ig-B7H3-His on CM5 chip, 1:1 fit; unconjugated 8H9, lot PHB800, Table 3 run
[6] = biological target: T3, human 2Ig-B7H3 (B7H3-2Ig-His); test: SPR, Biacore T200, 2Ig-B7H3-His on CM5 chip, 1:1 fit; unconjugated 8H9, lot P76501A, Table 5 run

Kd [1]: 0.0011 nM
koff [1]: 1e-05 s⁻¹
kon [1]: 8.9e+06 M⁻¹ s⁻¹
binding result [2]: no binding (tested: 3 µg/mL)
binding result [3]: no binding (tested: 3 µg/mL)
koff [4]: 1.1e-07 s⁻¹
Kd [5]: < 0.23 nM
Kd [6]: < 0.186 nM
B1: 8H9 antibody comprising a light chain according to SEQ ID No.: 2 and heavy chain according to SEQ ID No.: 1 (antibody, mouse IgG1, kappa, V domains shown)
VH: QVQLQQSGAELVKPGASVKLSCKASGYTFTNYDINWVRQRPEQGLEWIGWIFPGDGSTQYNEKFKGKATLTTDTSSSTAYMQLSRLTSEDSAVYFCARQTTATWFAYWGQGTLVTVSA
VL: DIVMTQSPATLSVTPGDRVSLSCRASQSISDYLHWYQQKSHESPRLLIKYASQSISGIPSRFSGSGSGSDFTLSINSVEPEDVGVYYCQNGHSFPLTFGAGTKLELKR
notes: Unconjugated mouse IgG1 mAb; also called m8H9; murine 8H9
